Assay results: patent US20260069687A1

Target: Claudin 18 splice variant 2 (CLDN18.2) (human)
Experiment: cell-based or functional assay

Chain of IMAB362 (VH): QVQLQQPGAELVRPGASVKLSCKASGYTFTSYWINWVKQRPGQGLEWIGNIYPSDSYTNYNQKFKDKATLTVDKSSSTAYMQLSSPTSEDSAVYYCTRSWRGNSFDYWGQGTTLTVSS
Chain of IMAB362 (VL): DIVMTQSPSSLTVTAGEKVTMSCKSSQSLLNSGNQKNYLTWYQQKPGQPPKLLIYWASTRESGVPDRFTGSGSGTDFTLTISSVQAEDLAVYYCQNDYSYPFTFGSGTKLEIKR

IMAB362 (antibody)
CDC lysis of CLDN18.2-transfected CHO-K1 cells, 0.5 µg/ml IMAB362 in pooled sera from healthy controls, 80 min: 64.5% | CDC lysis of CLDN18.2-transfected CHO-K1 cells, 0.5 µg/ml fresh IMAB362 in patient pre-infusion serum (20% v/v), 80 min: 71% | CDC lysis of CLDN18.2-transfected CHO-K1 cells, 0.5 µg/ml fresh IMAB362 in pre-infusion serum of patient 0204, 80 min: 93.9% | EC50 of CDC on CLDN18.2 positive CHO-K1 target cells: 0.5 µg/mL | EC80-100 of total cytotoxicity (ADCC plus serum components) on NUGC-4 cells, healthy donor PBMCs, E:T 40:1, 25% serum: 200 µg/mL | maximal specific lysis of NUGC-4 target cells, ADCC with patient PBMCs (E:T 20:1, 24 h), at ~30 µg/ml IMAB362: 27 to 77% | specific killing of NUGC-4 cells by IMAB362 present in patient serum 28-32 days after administration (healthy donor PBMCs, E:T 40:1): > 48%
